# Results from patent US20180009871A1 (INTARCIA THERAPEUTICS, published 2018).
# Where no end group is shown, it is not given here. [ ]: non-standard residue; d: D form. Aib = CC(C)(N)C(=O)O
# What was measured:
# [1] = molecular target: human glucagon receptor (GCGR) (human, UniProt P47871 26-477); test: cell-based or functional assay
# [2] = molecular target: human GLP-1 receptor (GLP-1R) (human, UniProt P43220 24-463); test: cell-based or functional assay
# Chain of human GLP-1 receptor (GLP-1R) (P43220 24-463): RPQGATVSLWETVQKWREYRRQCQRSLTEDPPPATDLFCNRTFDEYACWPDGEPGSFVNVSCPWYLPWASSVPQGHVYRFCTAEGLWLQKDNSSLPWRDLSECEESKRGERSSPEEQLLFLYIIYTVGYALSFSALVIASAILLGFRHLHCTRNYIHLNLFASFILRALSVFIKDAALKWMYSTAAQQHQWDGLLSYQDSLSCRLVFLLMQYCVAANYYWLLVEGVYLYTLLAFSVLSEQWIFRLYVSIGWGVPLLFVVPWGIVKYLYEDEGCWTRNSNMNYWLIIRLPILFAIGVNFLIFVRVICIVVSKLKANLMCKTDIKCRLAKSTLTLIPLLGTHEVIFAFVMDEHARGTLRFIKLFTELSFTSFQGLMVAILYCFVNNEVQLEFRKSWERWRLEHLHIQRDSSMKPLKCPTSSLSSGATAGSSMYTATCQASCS
binder,measurement,setting,value
YSHGTFTSDYSKYLDSARAQEFVKWLEDEPSSGKPPPS-OH [Compound A61],hGCGR pEC50 (cAMP),[1],11.4 pEC50
same,hGLP1 pEC50 (cAMP),[2],< 9 pEC50
YTHGTFTSDYSKYLD[Aib]KRAQEFV[Aib]WLEDEPSSGKPPPS-OH (N-terminus assumed; SMILES CC(C)C[C@H](NC(=O)[C@H](Cc1ccc(O)cc1)NC(=O)[C@H](CCCCN)NC(=O)[C@H](CO)NC(=O)[C@H](Cc1ccc(O)cc1)NC(=O)[C@H](CC(=O)O)NC(=O)[C@H](CO)NC(=O)[C@@H](NC(=O)[C@H](Cc1ccccc1)NC(=O)[C@@H](NC(=O)CNC(=O)[C@H](Cc1c[nH]cn1)NC(=O)[C@@H](NC(=O)[C@@H](N)Cc1ccc(O)cc1)[C@@H](C)O)[C@@H](C)O)[C@@H](C)O)C(=O)N[C@@H](CC(=O)O)C(=O)NC(C)(C)C(=O)N[C@@H](CCCCN)C(=O)N[C@@H](CCCNC(=N)N)C(=O)N[C@@H](C)C(=O)N[C@@H](CCC(N)=O)C(=O)N[C@@H](CCC(=O)O)C(=O)N[C@@H](Cc1ccccc1)C(=O)N[C@H](C(=O)NC(C)(C)C(=O)N[C@@H](Cc1c[nH]c2ccccc12)C(=O)N[C@@H](CC(C)C)C(=O)N[C@@H](CCC(=O)O)C(=O)N[C@@H](CC(=O)O)C(=O)N[C@@H](CCC(=O)O)C(=O)N1CCC[C@H]1C(=O)N[C@@H](CO)C(=O)N[C@@H](CO)C(=O)NCC(=O)N[C@@H](CCCCN)C(=O)N1CCC[C@H]1C(=O)N1CCC[C@H]1C(=O)N1CCC[C@H]1C(=O)N[C@@H](CO)C(=O)O)C(C)C) [Compound A60],hGCGR pEC50 (cAMP),[1],11.3 pEC50
same,hGLP1 pEC50 (cAMP),[2],< 9 pEC50
YTHGTFTSDYSKYLD[Aib]KRAQEFV[Aib]WLEDEPSSGAPPPS-OH (N-terminus assumed; SMILES CC(C)C[C@H](NC(=O)[C@H](Cc1ccc(O)cc1)NC(=O)[C@H](CCCCN)NC(=O)[C@H](CO)NC(=O)[C@H](Cc1ccc(O)cc1)NC(=O)[C@H](CC(=O)O)NC(=O)[C@H](CO)NC(=O)[C@@H](NC(=O)[C@H](Cc1ccccc1)NC(=O)[C@@H](NC(=O)CNC(=O)[C@H](Cc1c[nH]cn1)NC(=O)[C@@H](NC(=O)[C@@H](N)Cc1ccc(O)cc1)[C@@H](C)O)[C@@H](C)O)[C@@H](C)O)C(=O)N[C@@H](CC(=O)O)C(=O)NC(C)(C)C(=O)N[C@@H](CCCCN)C(=O)N[C@@H](CCCNC(=N)N)C(=O)N[C@@H](C)C(=O)N[C@@H](CCC(N)=O)C(=O)N[C@@H](CCC(=O)O)C(=O)N[C@@H](Cc1ccccc1)C(=O)N[C@H](C(=O)NC(C)(C)C(=O)N[C@@H](Cc1c[nH]c2ccccc12)C(=O)N[C@@H](CC(C)C)C(=O)N[C@@H](CCC(=O)O)C(=O)N[C@@H](CC(=O)O)C(=O)N[C@@H](CCC(=O)O)C(=O)N1CCC[C@H]1C(=O)N[C@@H](CO)C(=O)N[C@@H](CO)C(=O)NCC(=O)N[C@@H](C)C(=O)N1CCC[C@H]1C(=O)N1CCC[C@H]1C(=O)N1CCC[C@H]1C(=O)N[C@@H](CO)C(=O)O)C(C)C) [Compound A62],hGCGR pEC50 (cAMP),[1],11.5 pEC50
same,hGLP1 pEC50 (cAMP),[2],< 9 pEC50
YSHGTFTSDYSKYLD[Aib]KRAQEFV[Aib]WLEDEPKSKEPPPS-NH2 (N-terminus assumed; SMILES CC(C)C[C@H](NC(=O)[C@H](Cc1ccc(O)cc1)NC(=O)[C@H](CCCCN)NC(=O)[C@H](CO)NC(=O)[C@H](Cc1ccc(O)cc1)NC(=O)[C@H](CC(=O)O)NC(=O)[C@H](CO)NC(=O)[C@@H](NC(=O)[C@H](Cc1ccccc1)NC(=O)[C@@H](NC(=O)CNC(=O)[C@H](Cc1c[nH]cn1)NC(=O)[C@H](CO)NC(=O)[C@@H](N)Cc1ccc(O)cc1)[C@@H](C)O)[C@@H](C)O)C(=O)N[C@@H](CC(=O)O)C(=O)NC(C)(C)C(=O)N[C@@H](CCCCN)C(=O)N[C@@H](CCCNC(=N)N)C(=O)N[C@@H](C)C(=O)N[C@@H](CCC(N)=O)C(=O)N[C@@H](CCC(=O)O)C(=O)N[C@@H](Cc1ccccc1)C(=O)N[C@H](C(=O)NC(C)(C)C(=O)N[C@@H](Cc1c[nH]c2ccccc12)C(=O)N[C@@H](CC(C)C)C(=O)N[C@@H](CCC(=O)O)C(=O)N[C@@H](CC(=O)O)C(=O)N[C@@H](CCC(=O)O)C(=O)N1CCC[C@H]1C(=O)N[C@@H](CCCCN)C(=O)N[C@@H](CO)C(=O)N[C@@H](CCCCN)C(=O)N[C@@H](CCC(=O)O)C(=O)N1CCC[C@H]1C(=O)N1CCC[C@H]1C(=O)N1CCC[C@H]1C(=O)N[C@@H](CO)C(N)=O)C(C)C) [Compound A65],hGCGR pEC50 (cAMP),[1],12.5 pEC50
same,hGLP1 pEC50 (cAMP),[2],< 9 pEC50
YSHGTFTSDYSKYLD[Aib]KRAQEFV[Aib]WLEDEPSSKQPPPS-OH (N-terminus assumed; SMILES CC(C)C[C@H](NC(=O)[C@H](Cc1ccc(O)cc1)NC(=O)[C@H](CCCCN)NC(=O)[C@H](CO)NC(=O)[C@H](Cc1ccc(O)cc1)NC(=O)[C@H](CC(=O)O)NC(=O)[C@H](CO)NC(=O)[C@@H](NC(=O)[C@H](Cc1ccccc1)NC(=O)[C@@H](NC(=O)CNC(=O)[C@H](Cc1c[nH]cn1)NC(=O)[C@H](CO)NC(=O)[C@@H](N)Cc1ccc(O)cc1)[C@@H](C)O)[C@@H](C)O)C(=O)N[C@@H](CC(=O)O)C(=O)NC(C)(C)C(=O)N[C@@H](CCCCN)C(=O)N[C@@H](CCCNC(=N)N)C(=O)N[C@@H](C)C(=O)N[C@@H](CCC(N)=O)C(=O)N[C@@H](CCC(=O)O)C(=O)N[C@@H](Cc1ccccc1)C(=O)N[C@H](C(=O)NC(C)(C)C(=O)N[C@@H](Cc1c[nH]c2ccccc12)C(=O)N[C@@H](CC(C)C)C(=O)N[C@@H](CCC(=O)O)C(=O)N[C@@H](CC(=O)O)C(=O)N[C@@H](CCC(=O)O)C(=O)N1CCC[C@H]1C(=O)N[C@@H](CO)C(=O)N[C@@H](CO)C(=O)N[C@@H](CCCCN)C(=O)N[C@@H](CCC(N)=O)C(=O)N1CCC[C@H]1C(=O)N1CCC[C@H]1C(=O)N1CCC[C@H]1C(=O)N[C@@H](CO)C(=O)O)C(C)C) [Compound A59],hGCGR pEC50 (cAMP),[1],12.2 pEC50
same,hGLP1 pEC50 (cAMP),[2],< 9 pEC50
YSHGTFTSDYSKYLD[Aib]KRAQEFV[Aib]WLEDEPKSKSPPPS-OH (N-terminus assumed; SMILES CC(C)C[C@H](NC(=O)[C@H](Cc1ccc(O)cc1)NC(=O)[C@H](CCCCN)NC(=O)[C@H](CO)NC(=O)[C@H](Cc1ccc(O)cc1)NC(=O)[C@H](CC(=O)O)NC(=O)[C@H](CO)NC(=O)[C@@H](NC(=O)[C@H](Cc1ccccc1)NC(=O)[C@@H](NC(=O)CNC(=O)[C@H](Cc1c[nH]cn1)NC(=O)[C@H](CO)NC(=O)[C@@H](N)Cc1ccc(O)cc1)[C@@H](C)O)[C@@H](C)O)C(=O)N[C@@H](CC(=O)O)C(=O)NC(C)(C)C(=O)N[C@@H](CCCCN)C(=O)N[C@@H](CCCNC(=N)N)C(=O)N[C@@H](C)C(=O)N[C@@H](CCC(N)=O)C(=O)N[C@@H](CCC(=O)O)C(=O)N[C@@H](Cc1ccccc1)C(=O)N[C@H](C(=O)NC(C)(C)C(=O)N[C@@H](Cc1c[nH]c2ccccc12)C(=O)N[C@@H](CC(C)C)C(=O)N[C@@H](CCC(=O)O)C(=O)N[C@@H](CC(=O)O)C(=O)N[C@@H](CCC(=O)O)C(=O)N1CCC[C@H]1C(=O)N[C@@H](CCCCN)C(=O)N[C@@H](CO)C(=O)N[C@@H](CCCCN)C(=O)N[C@@H](CO)C(=O)N1CCC[C@H]1C(=O)N1CCC[C@H]1C(=O)N1CCC[C@H]1C(=O)N[C@@H](CO)C(=O)O)C(C)C) [Compound A58],hGCGR pEC50 (cAMP),[1],12.2 pEC50
same,hGLP1 pEC50 (cAMP),[2],< 9 pEC50
YSHGTFTSDYSKYLD[Aib]KRAQEFV[Aib]WLEDEPKSKQPPPS-OH (N-terminus assumed; SMILES CC(C)C[C@H](NC(=O)[C@H](Cc1ccc(O)cc1)NC(=O)[C@H](CCCCN)NC(=O)[C@H](CO)NC(=O)[C@H](Cc1ccc(O)cc1)NC(=O)[C@H](CC(=O)O)NC(=O)[C@H](CO)NC(=O)[C@@H](NC(=O)[C@H](Cc1ccccc1)NC(=O)[C@@H](NC(=O)CNC(=O)[C@H](Cc1c[nH]cn1)NC(=O)[C@H](CO)NC(=O)[C@@H](N)Cc1ccc(O)cc1)[C@@H](C)O)[C@@H](C)O)C(=O)N[C@@H](CC(=O)O)C(=O)NC(C)(C)C(=O)N[C@@H](CCCCN)C(=O)N[C@@H](CCCNC(=N)N)C(=O)N[C@@H](C)C(=O)N[C@@H](CCC(N)=O)C(=O)N[C@@H](CCC(=O)O)C(=O)N[C@@H](Cc1ccccc1)C(=O)N[C@H](C(=O)NC(C)(C)C(=O)N[C@@H](Cc1c[nH]c2ccccc12)C(=O)N[C@@H](CC(C)C)C(=O)N[C@@H](CCC(=O)O)C(=O)N[C@@H](CC(=O)O)C(=O)N[C@@H](CCC(=O)O)C(=O)N1CCC[C@H]1C(=O)N[C@@H](CCCCN)C(=O)N[C@@H](CO)C(=O)N[C@@H](CCCCN)C(=O)N[C@@H](CCC(N)=O)C(=O)N1CCC[C@H]1C(=O)N1CCC[C@H]1C(=O)N1CCC[C@H]1C(=O)N[C@@H](CO)C(=O)O)C(C)C) [Compound A57],hGCGR pEC50 (cAMP),[1],12 pEC50
same,hGLP1 pEC50 (cAMP),[2],< 9 pEC50
YTHGTFTSDYSKYLD[Aib]ARAQEFV[Aib]WLEDEPSSGAPPPS-OH (N-terminus assumed; SMILES CC(C)C[C@H](NC(=O)[C@H](Cc1ccc(O)cc1)NC(=O)[C@H](CCCCN)NC(=O)[C@H](CO)NC(=O)[C@H](Cc1ccc(O)cc1)NC(=O)[C@H](CC(=O)O)NC(=O)[C@H](CO)NC(=O)[C@@H](NC(=O)[C@H](Cc1ccccc1)NC(=O)[C@@H](NC(=O)CNC(=O)[C@H](Cc1c[nH]cn1)NC(=O)[C@@H](NC(=O)[C@@H](N)Cc1ccc(O)cc1)[C@@H](C)O)[C@@H](C)O)[C@@H](C)O)C(=O)N[C@@H](CC(=O)O)C(=O)NC(C)(C)C(=O)N[C@@H](C)C(=O)N[C@@H](CCCNC(=N)N)C(=O)N[C@@H](C)C(=O)N[C@@H](CCC(N)=O)C(=O)N[C@@H](CCC(=O)O)C(=O)N[C@@H](Cc1ccccc1)C(=O)N[C@H](C(=O)NC(C)(C)C(=O)N[C@@H](Cc1c[nH]c2ccccc12)C(=O)N[C@@H](CC(C)C)C(=O)N[C@@H](CCC(=O)O)C(=O)N[C@@H](CC(=O)O)C(=O)N[C@@H](CCC(=O)O)C(=O)N1CCC[C@H]1C(=O)N[C@@H](CO)C(=O)N[C@@H](CO)C(=O)NCC(=O)N[C@@H](C)C(=O)N1CCC[C@H]1C(=O)N1CCC[C@H]1C(=O)N1CCC[C@H]1C(=O)N[C@@H](CO)C(=O)O)C(C)C) [Compound A64],hGCGR pEC50 (cAMP),[1],10.7 pEC50
same,hGLP1 pEC50 (cAMP),[2],< 9 pEC50
YTHGTFTSDYSKYLDSARAQEFVKWLEDEPSSGAPPPS-OH [Compound A63],hGCGR pEC50 (cAMP),[1],10.4 pEC50
same,hGLP1 pEC50 (cAMP),[2],< 9 pEC50
